The record followed here is IntAct's records for PubMed 18583988.

B1: Nibrin (Homo sapiens), O60934 (parent)
chain: MWKLLPAAGPAGGEPYRLLTGVEYVVGRKNCAILIENDQSISRNHAVLTANFSVTNLSQTDEIPVLTLKDNSKYGTFVNEEKMQNGFSRTLKSGDGITFGVFGSKFRIEYEPLVACSSCLDVSGKTALNQAILQLGGFTVNNWTEECTHLVMVSVKVTIKTICALICGRPIVKPEYFTEFLKAVESKKQPPQIESFYPPLDEPSIGSKNVDLSGRQERKQIFKGKTFIFLNAKQHKKLSSAVVFGGGEARLITEENEEEHNFFLAPGTCVVDTGITNSQTLIPDCQKKWIQSIMDMLQRQGLRPIPEAEIGLAVIFMTTKNYCDPQGHPSTGLKTTTPGPSLSQGVSVDEKLMPSAPVNTTTYVADTESEQADTWDLSERPKEIKVSKMEQKFRMLSQDAPTVKESCKTSSNNNSMVSNTLAKMRIPNYQLSPTKLPSINKSKDRASQQQQTNSIRNYFQPSTKKRERDEENQEMSSCKSARIETSCSLLEQTQPATPSLWKNKEQHLSENEPVDTNSDNNLFTDTDLKSIVKNSASKSHAAEKLRSNKKREMDDVAIEDEVLEQLFKDTKPELEIDVKVQKQEEDVNVRKRPRMDIETNDTFSDEAVPESSKISQENEIGKKRELKEDSLWSAKEISNNDKLQDDSEMLPKKLLLTEFRSLVIKNSTSRNPSGINDDYGQLKNFKKFKKVTYPGAGKLPHIIGGSDLIAHHARKNTELEEWLRQEMEVQNQHAKEESLADDLFRYNPYLKRRR

Variants of B1 are the subject of one assay. To be noted: with mdc1_human MDC1, Q14676.
Chain of mdc1_human MDC1, Q14676 (Q14676 whole entry): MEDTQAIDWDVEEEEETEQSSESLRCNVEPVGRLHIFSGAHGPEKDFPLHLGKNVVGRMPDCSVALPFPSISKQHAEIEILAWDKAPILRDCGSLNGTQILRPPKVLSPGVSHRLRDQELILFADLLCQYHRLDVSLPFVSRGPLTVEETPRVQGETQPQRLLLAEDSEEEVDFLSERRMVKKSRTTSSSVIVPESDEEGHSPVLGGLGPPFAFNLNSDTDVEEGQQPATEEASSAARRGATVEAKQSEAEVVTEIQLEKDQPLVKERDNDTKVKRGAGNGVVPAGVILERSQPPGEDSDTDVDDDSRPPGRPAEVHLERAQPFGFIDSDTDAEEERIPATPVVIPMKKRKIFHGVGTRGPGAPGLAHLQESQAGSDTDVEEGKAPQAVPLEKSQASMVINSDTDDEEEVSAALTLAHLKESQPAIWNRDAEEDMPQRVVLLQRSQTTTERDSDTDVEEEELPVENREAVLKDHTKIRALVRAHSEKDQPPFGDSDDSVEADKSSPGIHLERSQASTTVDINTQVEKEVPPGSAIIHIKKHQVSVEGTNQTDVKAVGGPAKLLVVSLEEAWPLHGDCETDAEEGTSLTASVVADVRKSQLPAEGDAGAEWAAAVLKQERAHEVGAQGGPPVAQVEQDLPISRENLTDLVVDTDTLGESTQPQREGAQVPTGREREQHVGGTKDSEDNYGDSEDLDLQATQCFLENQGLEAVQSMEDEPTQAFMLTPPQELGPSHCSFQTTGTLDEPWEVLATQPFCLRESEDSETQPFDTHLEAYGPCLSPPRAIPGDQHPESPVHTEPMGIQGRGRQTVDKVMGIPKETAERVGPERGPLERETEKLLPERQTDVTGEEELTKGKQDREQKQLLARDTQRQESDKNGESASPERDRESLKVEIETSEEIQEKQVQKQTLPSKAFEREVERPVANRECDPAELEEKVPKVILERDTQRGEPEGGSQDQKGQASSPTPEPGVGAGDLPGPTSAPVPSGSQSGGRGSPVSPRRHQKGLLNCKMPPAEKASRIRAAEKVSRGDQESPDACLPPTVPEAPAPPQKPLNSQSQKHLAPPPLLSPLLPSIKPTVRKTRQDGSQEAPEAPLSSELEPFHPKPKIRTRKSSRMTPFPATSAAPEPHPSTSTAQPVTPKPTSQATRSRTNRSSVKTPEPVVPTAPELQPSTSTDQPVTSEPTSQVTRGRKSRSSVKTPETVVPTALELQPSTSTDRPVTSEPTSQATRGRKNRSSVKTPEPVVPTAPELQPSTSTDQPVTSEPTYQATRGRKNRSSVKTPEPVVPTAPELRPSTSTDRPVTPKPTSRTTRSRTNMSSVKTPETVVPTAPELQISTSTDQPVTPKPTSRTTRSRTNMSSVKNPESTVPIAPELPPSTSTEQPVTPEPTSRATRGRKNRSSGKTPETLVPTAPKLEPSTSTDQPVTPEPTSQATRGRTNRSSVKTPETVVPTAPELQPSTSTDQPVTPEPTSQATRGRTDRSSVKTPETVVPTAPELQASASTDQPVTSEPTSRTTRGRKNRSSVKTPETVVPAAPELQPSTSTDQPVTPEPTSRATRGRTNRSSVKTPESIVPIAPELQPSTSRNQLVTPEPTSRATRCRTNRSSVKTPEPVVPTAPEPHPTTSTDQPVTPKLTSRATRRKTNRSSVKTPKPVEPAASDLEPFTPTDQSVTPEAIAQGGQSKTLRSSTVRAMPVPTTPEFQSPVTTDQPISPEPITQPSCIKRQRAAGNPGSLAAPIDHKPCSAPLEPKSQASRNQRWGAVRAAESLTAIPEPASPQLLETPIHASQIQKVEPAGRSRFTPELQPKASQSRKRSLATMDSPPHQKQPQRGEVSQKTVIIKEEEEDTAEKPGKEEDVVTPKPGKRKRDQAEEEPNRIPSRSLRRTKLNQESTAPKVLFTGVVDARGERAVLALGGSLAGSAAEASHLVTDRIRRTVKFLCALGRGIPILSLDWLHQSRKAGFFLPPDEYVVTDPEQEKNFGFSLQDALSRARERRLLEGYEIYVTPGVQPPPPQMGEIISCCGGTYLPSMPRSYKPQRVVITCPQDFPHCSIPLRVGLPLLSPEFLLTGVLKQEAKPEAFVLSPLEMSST
As for H45A, the “effect of a mutation on the interaction” value is recorded as “disrupting interaction”.

Variants of B1 are the subject of a further assay. To be noted: with mdc1_human MDC1, Q14676. This is another data set of the same source.
Take R28A: the “effect of a mutation on the interaction” value is “disrupting interaction”.

Variants of B1 are the subject of a further assay. Conditions: with mdc1_human MDC1, Q14676. This is another data set of the same source.
Turning to K160M, the “effect of a mutation on the interaction” value is “disrupting interaction”.
